Our source for the protein stability index values is the supplement of paper PMC10567573.

Sequences and labels used below:
B1: ZNF263 (parent)
chain: HLTRHQRTHTGEKPYKCTLCGENF
B2: BTBD1 (parent)
chain: IVGFGLYGSIHGPTDYQVNIQIIE
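Also: lentivirally expressed fusions sorted by FACS into six bins by GFP to DsRed ratio, PSI derived from sequencing read proportions per bin multiplied by bin number.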

The first data set covers variants of B1. Briefly: protein stability index of a GFP-peptide fusion (GPS, HEK-293T) (PSI 1-6); higher = more stable. To be noted: c terminus: a fixed tail appended.
As for ALTRHQRTHTGEKPYKCTLCGENF [H1A], the protein stability index was determined as 3.07.
In the case of VLTRHQRTHTGEKPYKCTLCGENF [H1V], the protein stability index is 2.46.
The same measure, in the same setting: the result for GLTRHQRTHTGEKPYKCTLCGENF [H1G] reads 2.19.
Regarding DLTRHQRTHTGEKPYKCTLCGENF [H1D], the protein stability index came out at 2.97.
For the variant TLTRHQRTHTGEKPYKCTLCGENF [H1T], the protein stability index is 2.56.
The same measure, in the same setting: the result for WLTRHQRTHTGEKPYKCTLCGENF [H1W] reads 2.22; that for CLTRHQRTHTGEKPYKCTLCGENF [H1C], 4.02; that for KLTRHQRTHTGEKPYKCTLCGENF [H1K], 2.74.
As for QLTRHQRTHTGEKPYKCTLCGENF [H1Q], the protein stability index came out at 3.06.
As to RLTRHQRTHTGEKPYKCTLCGENF [H1R], the protein stability index came to 3.02.
The same measure, in the same setting: the result for SLTRHQRTHTGEKPYKCTLCGENF [H1S] reads 3.12.
As to NLTRHQRTHTGEKPYKCTLCGENF [H1N], the protein stability index stood at 3.22.
Take ILTRHQRTHTGEKPYKCTLCGENF [H1I]: the protein stability index came to 2.19.
For the variant LLTRHQRTHTGEKPYKCTLCGENF [H1L], the protein stability index was found to be 3.11.
For the variant MLTRHQRTHTGEKPYKCTLCGENF [H1M], the protein stability index is 3.02.
For the variant FLTRHQRTHTGEKPYKCTLCGENF [H1F], the protein stability index stood at 1.36.
As for YLTRHQRTHTGEKPYKCTLCGENF [H1Y], the protein stability index amounted to 2.23.
For ELTRHQRTHTGEKPYKCTLCGENF [H1E], the protein stability index was 2.97.
As for PLTRHQRTHTGEKPYKCTLCGENF [H1P], the protein stability index worked out at 4.14.
With HGTRHQRTHTGEKPYKCTLCGENF [L2G], the protein stability index turned out to be 3.51.
HATRHQRTHTGEKPYKCTLCGENF [L2A]: the protein stability index was found to be 3.06.
On the same count and under the same terms, the value for HETRHQRTHTGEKPYKCTLCGENF [L2E] was 3.31; that for HCTRHQRTHTGEKPYKCTLCGENF [L2C] was 4.73.
With HWTRHQRTHTGEKPYKCTLCGENF [L2W], the protein stability index turned out to be 2.71.
As for HRTRHQRTHTGEKPYKCTLCGENF [L2R], the protein stability index was 2.79.
As to HKTRHQRTHTGEKPYKCTLCGENF [L2K], the protein stability index amounted to 3.38.
As for HSTRHQRTHTGEKPYKCTLCGENF [L2S], the protein stability index was 3.8.
For the variant HNTRHQRTHTGEKPYKCTLCGENF [L2N], the protein stability index was found to be 3.73.
Take HQTRHQRTHTGEKPYKCTLCGENF [L2Q]: the protein stability index turned out to be 3.22.
In the case of HTTRHQRTHTGEKPYKCTLCGENF [L2T], the protein stability index turned out to be 3.14.
Take HPTRHQRTHTGEKPYKCTLCGENF [L2P]: the protein stability index was 3.57.
Still for that read-out and setting: the result for HVTRHQRTHTGEKPYKCTLCGENF [L2V] reads 3.39; that for HHTRHQRTHTGEKPYKCTLCGENF [L2H], 3.53.
With HDTRHQRTHTGEKPYKCTLCGENF [L2D], the protein stability index turned out to be 4.16.
On to HMTRHQRTHTGEKPYKCTLCGENF [L2M], for which the protein stability index stood at 3.04.
HYTRHQRTHTGEKPYKCTLCGENF [L2Y]: the protein stability index worked out at 3.3.
Same read-out and setting: the result for HFTRHQRTHTGEKPYKCTLCGENF [L2F] reads 2.9.
On to HITRHQRTHTGEKPYKCTLCGENF [L2I], for which the protein stability index turned out to be 2.59.
Consider HLDRHQRTHTGEKPYKCTLCGENF [T3D], for which the protein stability index turned out to be 3.77.
In the case of HLCRHQRTHTGEKPYKCTLCGENF [T3C], the protein stability index came out at 3.47.
The same measure, in the same setting: the value for HLERHQRTHTGEKPYKCTLCGENF [T3E] was 3.29.
With HLFRHQRTHTGEKPYKCTLCGENF [T3F], the protein stability index was 2.3.
Turning to HLARHQRTHTGEKPYKCTLCGENF [T3A], the protein stability index came out at 2.88.

Variants of B2 are the subject of a further data set. The description is as above. As to conditions: c terminus: a fixed tail appended.
Take IVGFGLYGSIHGPMDYQVNIQIIE [T14M]: the protein stability index was found to be 3.23.
Regarding IVGFGLYGSIHGPDDYQVNIQIIE [T14D], the protein stability index came to 2.94.
On the same count and under the same terms, the value for IVGFGLYGSIHGPRDYQVNIQIIE [T14R] was 4.46.
As for IVGFGLYGSIHGPHDYQVNIQIIE [T14H], the protein stability index came to 2.71.
On the same count and under the same terms, the value for IVGFGLYGSIHGPYDYQVNIQIIE [T14Y] was 3.03.
In the case of IVGFGLYGSIHGPNDYQVNIQIIE [T14N], the protein stability index turned out to be 2.95.
The same measure, in the same setting: the result for IVGFGLYGSIHGPPDYQVNIQIIE [T14P] reads 3.3; that for IVGFGLYGSIHGPIDYQVNIQIIE [T14I], 2.73; that for IVGFGLYGSIHGPWDYQVNIQIIE [T14W], 2.9.
As to IVGFGLYGSIHGPQDYQVNIQIIE [T14Q], the protein stability index was 3.12.
Same read-out and setting: the value for IVGFGLYGSIHGPCDYQVNIQIIE [T14C] was 2.51; that for IVGFGLYGSIHGPVDYQVNIQIIE [T14V] was 2.82.
For the variant IVGFGLYGSIHGPSDYQVNIQIIE [T14S], the protein stability index was found to be 3.24.
On the same count and under the same terms, the result for IVGFGLYGSIHGYTDYQVNIQIIE [P13Y] reads 2.98.
With IVGFGLYGSIHGPTDYQVNIQIVE [I23V], the protein stability index stood at 2.82.
IVGFGLYGSIHGPTDYQVNIQIME [I23M]: the protein stability index was determined as 3.68.
As for IVGFGLYGSIHGPTDYQVNIQIHE [I23H], the protein stability index amounted to 4.05.
For IVGFGLYGSIHGPTDYQVNIQIPE [I23P], the protein stability index came to 2.21.
For IVGFGLYGSIHGPTDYQVNIQILE [I23L], the protein stability index worked out at 2.96.
On to IVGFGLYGSIHGPTDYQVNIQIRE [I23R], for which the protein stability index worked out at 2.12.
Same read-out and setting: the value for IVGFGLYGSIHGPTDYQVNIQINE [I23N] was 3.56.
In the case of IVGFGLYGSIHGPTDYQVNIQISE [I23S], the protein stability index was 2.29.
On the same count and under the same terms, the value for IVGFGLYGSIHGPTDYQVNIQICE [I23C] was 2.05; that for IVGFGLYGSIHGPTDYQVNIQIWE [I23W] was 1.57; that for IVGFGLYGSIHGPTDYQVNIQIKE [I23K] was 2.13.
Take IVGFGLYGSIHGPTDYQVNIQIEE [I23E]: the protein stability index worked out at 2.23.
Regarding IVGFGLYGSIHGPTDYQVNIQIYE [I23Y], the protein stability index was 2.12.
Same read-out and setting: the result for IVGFGLYGSIHGPTDYQVQIQIIE [N19Q] reads 2.56.
IVGFGLYGSIHGPTDYQVPIQIIE [N19P]: the protein stability index worked out at 3.38.
In the case of IVGFGLYGSIHGPTDYQVVIQIIE [N19V], the protein stability index was 4.07.
Turning to IVGFGLYGSIHGPTDYQVRIQIIE [N19R], the protein stability index came to 2.13.
In the case of IVGFGLYGSIHGPTDYQVWIQIIE [N19W], the protein stability index turned out to be 1.76.
Consider IVGFGLYGSIHGPTDYQVMIQIIE [N19M], for which the protein stability index is 4.59.
For IVGFGLYGSIHGPTDYQVHIQIIE [N19H], the protein stability index worked out at 1.59.
For the variant IVGFGLYGSIHGPTDYQVTIQIIE [N19T], the protein stability index was found to be 3.11.
The same measure, in the same setting: the value for IVGFGLYGSIHGPTDYQVIIQIIE [N19I] was 3.1.
In the case of IVGFGLYGSIHGPTDYQVGIQIIE [N19G], the protein stability index worked out at 1.59.
On to IVGFGLYGSIHGPTEYQVNIQIIE [D15E], for which the protein stability index turned out to be 3.19.
On to IVGFGLYGSIHGPTAYQVNIQIIE [D15A], for which the protein stability index came to 2.57.
On the same count and under the same terms, the value for IVGFGLYGSIHGPTGYQVNIQIIE [D15G] was 2.52.
On to IVGFGLYGSIHGPTIYQVNIQIIE [D15I], for which the protein stability index was 3.86.
With IVGFGLYGSIHGPTVYQVNIQIIE [D15V], the protein stability index came out at 2.67.
Same read-out and setting: the value for IVGFGLYGSIHGPTSYQVNIQIIE [D15S] was 3.04; that for IVGFGLYGSIHGPTYYQVNIQIIE [D15Y] was 3.42; that for IVGFGLYGSIHGPTNYQVNIQIIE [D15N] was 2.36.
The same measure, in the same setting: the value for IVGFGLYGSIHGPTPYQVNIQIIE [D15P] was 2.37; that for IVGFGLYGSIHGPTLYQVNIQIIE [D15L] was 3.05; that for IVGFGLYGSIHGPTMYQVNIQIIE [D15M] was 2.99.
Turning to IVGFGLYGSIHGPTCYQVNIQIIE [D15C], the protein stability index worked out at 2.97.
As to IVGFGLYGSIHGPTDYQVNSQIIE [I20S], the protein stability index came to 1.93.
Still for that read-out and setting: the value for IVGFGLYGSIHGPTDYQVNNQIIE [I20N] was 1.24.
